In the supplement of paper PMC9170038:

System: MS2 coat protein
Assay: apparent KD of MS2 coat protein; designed switch direction (-1 OFF switch, 1 ON switch): -1; higher = weaker reporter binding
In short: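 Designed RNA switches with common flanks were transcribed on Illumina chips by stalled E. coli RNA polymerase and titrated with SNAP-549-labelled MS2 coat protein, from 0.7 or 1.5 nM doubling to 3 µM, in Tris-HCl pH 7.5 buffer with KCl, MgCl2, BSA, DTT, tRNA and Tween-20. Steps lasted 0.8–1.5 h (lowest) to 10–20 min (highest). Titrations ran without input, with 200 uM small-molecule ligand, or with an oligonucleotide input. Normalised cluster fluorescence was curve-fitted, and apparent KD is the per-design median over clusters.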

[1] = input ligand: microRNA oligo, concentration not stated
[2] = Eterna round: R95, input ligand: microRNA oligo, concentration not stated
[3] = Eterna round: R95, input ligand: FMN 200 uM
[4] = Eterna round: R95, input ligand: none

Row | Sequence | apparent KD of MS2 coat protein (input ligand: FMN 200 uM) [nM] | apparent KD of MS2 coat protein (input ligand: none) [nM] | apparent KD of MS2 coat protein [1] [nM] | apparent KD of MS2 coat protein [2] [nM] | apparent KD of MS2 coat protein [3] [nM] | apparent KD of MS2 coat protein [4] [nM]
1 | CCACGACAUGAGGAUCACCCAUGUGAGGAUAUGGCCUGAAAAGCGUGAGCAGUUUCUAUCAGAAGGCGCGUGGG [salish99_ex1_r4_063] (Eterna round: R97, puzzle: Exclusion 1) | 137 | 49.4 | – | – | – | –
2 | CCACGACAUGAGGAUCACCCAUGUGAGGAUAUGGCCUGAAAAGCGUGAGCAGUUUGUAUCAGAAGGCGCGUGGG [salish99_ex1_r4_065] (Eterna round: R97, puzzle: Exclusion 1) | 79.1 | 53.8 | – | – | – | –
3 | CCACGUCUGCAGGAUAUCAGAUUGUAAGAUCGAUGAGAAGGGCAGACAUGAGGAUCACCCAUGUCCGCCACCAA [EX6 C.10] (Eterna round: R97, puzzle: Exclusion 6) | 20.6 | 20.6 | – | – | – | –
4 | CCACUGUCAGGAUAUCGUGCAUAACGUUUACAUUAUAUGUGCGAGAAGGGACAUGAGGAUCACCCAUGUAAACG [Omei Ex4 A28PK1] (Eterna round: R97, puzzle: Exclusion 4) | 604 | 566 | – | – | – | –
5 | CCAGACGUUGUAGGAUAUCUGAAAGGAAGUGUAAGAGAAGGAUAGUGUCUGUAAAACAUGAGGAUCACCCAUGUGGGCGCAUCC [PowerStrip EXNG 1.30] (Eterna round: R96, puzzle: Exclusion NG 1) | – | – | 16.7 | – | – | –
6 | CCAGCAAAUGUAAGGAUAUGCUGGUCCUUGGAUCAGCAGAAGGUACAUGAGGAUCACCCAUGUGUGAAAGCUGG [Eli bmx4 4.57] (Eterna round: R97, puzzle: Brourd's mod of Exclusion 4) | 674 | 166 | – | – | – | –
7 | CCAGCGUAUGUGAGGAUAUGCUGGUCCUUGGAUCAGCAGAAGGCACAUGAGGAUCACCCAUGUGGUGUCGUUGG [JL bmx4 3.45] (puzzle: Brourd's mod of Exclusion 4) | – | – | – | 149 | – | –
8 | CCAUAUAACUGAGGAUAUCAUCGCCACUGACGUUGAGAAGGCAGACAUGAGGAUCACCCAUGUGAUUUCUCAAUAUUAUACAUC [Prohibition 79 - Jieux - Exclusion NG 1] (Eterna round: R96, puzzle: Exclusion NG 1) | 118 | 40 | 33.8 | – | – | –
9 | CCAUCGAGUGUGAGGAUAUGCUGGUCCUUGGAUCAGCAGAAGGCACAUGAGGAUCACCCAUGUGGAUACGGUGG [JL bmx4 3.19] (puzzle: Brourd's mod of Exclusion 4) | – | – | – | 30 | – | –
10 | CCAUCGUGUGUGAGGAUAUGCUGGUCCUUGGAUCAGCAGAAGGCACAUGAGGAUCACCCAUGUGAAAACGAUGG [Mat - Exclusion 4 - JL Mod - D88] (puzzle: Brourd's mod of Exclusion 4) | – | – | – | 16.8 | – | –
11 | CCAUGCACGCUGCGGUCCUACAUGAGGAUCACCCAUGUGGUCUGGUGGCGUGGGUCGCCGGACUUGGCUCGUCUUGA [salish99_S_TOV1_R5_022] (Eterna round: R97, puzzle: Sensor, turn-off variant 1) | 25.6 | 24.7 | – | – | – | –
12 | CCAUGGAGUGUGAGGAUAUGCUGGUCCUUGGAUCAGCAGAAGGCACAUGAGGAUCACCCAUGUGAAUACCGUGG [Mat - Exclusion 4 - JL Mod - D83] (puzzle: Brourd's mod of Exclusion 4) | – | – | – | 31.4 | – | –
13 | CCAUGGGAGCGAGGAUAUAGACCAUGGGAAGAUCUAGAAGGCGCUGACAUGAGGAUCACCCAUGUGUUCAUGAGGAGGUGGACA (Eterna round: R96, puzzle: Exclusion NG 1) | 73.7 | 47.1 | 74.4 | – | – | –
14 | CCAUGGGUGCGAGGAUAUAGCCCAUGGGAAGAGCUAGAAGGCGCAGACAUGAGGAUCACCCAUGUGUUCAUGAGGAGGUGGACA (Eterna round: R96, puzzle: Exclusion NG 1) | 124 | 84.8 | 54.8 | – | – | –
15 | CCCACAGGACAUGAGGAUCACCCAUGUGCGAUAUCCUGAGCGCAGGAUAUUUUCCCACGAAAGGAAGAGAAGGGCGCCGAAAGC [Eternabot solution 1] (Eterna round: R96, puzzle: Exclusion NG 3) | 24.6 | 44.3 | 29.6 | – | – | –
16 | CCCACGCACCAAGGAUAUGUUCCGCACAUGAGGAUCACCCAUGUGGCCAGCGAUUCUGUGUGAGAACAGAAGGUGGUUAUGUUA [Eternabot solution 41] (Eterna round: R96, puzzle: Exclusion NG 2) | 468 | 219 | 315 | – | – | –

Row | Sequence | apparent KD of MS2 coat protein (input ligand: FMN 200 uM) [nM] | apparent KD of MS2 coat protein (input ligand: none) [nM] | apparent KD of MS2 coat protein [1] [nM] | apparent KD of MS2 coat protein [2] [nM] | apparent KD of MS2 coat protein [3] [nM] | apparent KD of MS2 coat protein [4] [nM]
17 | CCCAGACUAGGAUAUACAAGCCGUGGCGAGGUGGGCCUGGGACAUGAGGAUCACCCAUGUAGAAGGAGUAGGUC [Eternabot (Original) Solution 31] (Eterna round: R97, puzzle: Exclusion 2) | 127 | 136 | – | – | – | –
18 | CCCAGGGCAGGAUAUAGAGGGCGAAACAUGAGGAUCACCCAUGUGACCUCGGAACAGCUGCUAGAAGGGCCAAAUU [Beesquti] (puzzle: Exclusion 5) | – | – | – | 14.8 | 21.1 | 15.3
19 | CCCAGUUACGUAGGAUAUUGUACAUGAGGAUCACCCAUGUAAUAAAUGAGGAUUUCGGGUGUCUACAAGAAGGACGGGAUAGGC [Ostracism 17 - Jieux - Exclusion NG 2] (Eterna round: R96, puzzle: Exclusion NG 2) | 186 | 93 | 80.6 | – | – | –
20 | CCCAGUUAUUGAGGAUAUUGUACAUGAGGAUCACCCAUGUAAUAAAUGAGGAUUUCGGGUGUCUACAAGAAGGCAAGGAUAGGC [Ostracism 20 - Jieux - Exclusion NG 2] (Eterna round: R96, puzzle: Exclusion NG 2) | 54.6 | 46.8 | 46.1 | – | – | –
21 | CCCAUGUCAGGAUAUUAGAUACUGCCUCAAAACAAAGGCAUUGAGAAGGGACAUGAGGAUCACCCAUGUAAAAC [Leissobima] (Eterna round: R97, puzzle: Exclusion 4) | 59.5 | 183 | – | – | – | –
22 | CCCGUGUGAGGAUAUCCCUCCACAGUACGAAUCGACCCGUGGGAGAAGGCACAUGAGGAUCACCCAUGUGAACG [Eternabot (Original) Solution 30] (Eterna round: R97, puzzle: Exclusion 4) | 42.5 | 32.8 | – | – | – | –
23 | CCCUCACAUGAGGAUCACCCAUGUCAGGAUAUCUAGUCAGACAGUGUAGCACUGCUGAAGAGAAGGGACGUAAA [Isinzare] (puzzle: Exclusion 1) | – | – | – | 15.9 | – | –
24 | CCCUCACAUGAGGAUCACCCAUGUCAGGAUAUUCGAACGGUGUGUUUUUGGCCAGUUGGAAGAAGGGACAUAAA [Riinesbe] (Eterna round: R96, puzzle: Exclusion 1) | 278 | 32.2 | 29 | – | – | –
25 | CCCUCACAUGAGGAUCACCCAUGUCAGGAUAUUCGAACGGUGUGUUUUUGGCCAGUUGGAAGAAGGGACAUAAA [Riinesbe] (puzzle: Exclusion 1) | – | – | – | 36.2 | – | –
26 | CCCUCACAUGAGGAUCACCCAUGUCAGGAUAUUCGAGGCGCAAAUACGCCAAAUGCAGGAAGAAGGGACGUGCC [Ususzalaxe] (puzzle: Exclusion 1) | – | – | – | 13.5 | – | –
27 | CCGACUCAAGGAUAUUGUACUGCUGACAUGAGGAUCACCCAUGUGUCCUGACGCGGACGACGAGAAGGUGACGACA [Eternabot (Original) Solution 44] (Eterna round: R97, puzzle: Exclusion 5) | 981 | 292 | – | – | – | –
28 | CCGAGCAUAUGAGGAUCAGACAUGAGGAUCACCCAUGUGCUCCGUCGAAGGAAUAAUCAUAAUGCUGGCUCGUCGUG [Eternabot (L2) Solution 6] (Eterna round: R97, puzzle: Sensor, turn-off variant 1) | 555 | 457 | – | – | – | –
29 | CCGAGGUAGCGGUCCUAUGACAUGAGGAUCACCCAUGUACCUCGCUACGAGCUUUUUGCUCGUCAUAUAAUUCUCGG [Mat - Sensor v3 - turn-off var 1 - JL Mod - D30] (Eterna round: R96, puzzle: Sensor v3, turn-off variant 1) | 56.8 | 61.3 | 49.7 | – | – | –
30 | CCGAGGUAGCGGUCCUAUGACAUGAGGAUCACCCAUGUACCUCGCUACGAGCUUUUUGCUCGUCAUAUAAUUCUCGG [Mat - Sensor v3 - turn-off var 1 - JL Mod - D30] (puzzle: Sensor v3, turn-off variant 1) | – | – | – | 57.9 | 45.4 | 66.3
31 | CCGAGGUGGCGGUCCUAUGACAUGAGGAUCACCCAUGUACCUCGCCACAAGCUUUUUGCUCAUCUUAUAAUUCUCGG [Gelelebius] (puzzle: Sensor v3, turn-off variant 1) | – | – | – | 117 | 18 | 16.1
